Earlier results, collected in article PMC3359286.

Molecular target: hemoglobin (Homo sapiens) (UniProt P69905)
Sequence (P69905 2-142, chain 1 of 2): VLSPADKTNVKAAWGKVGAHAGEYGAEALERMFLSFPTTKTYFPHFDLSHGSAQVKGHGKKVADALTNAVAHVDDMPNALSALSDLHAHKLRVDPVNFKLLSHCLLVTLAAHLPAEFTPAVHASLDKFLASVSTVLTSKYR
Sequence (P68871 2-147, chain 2 of 2, further chain): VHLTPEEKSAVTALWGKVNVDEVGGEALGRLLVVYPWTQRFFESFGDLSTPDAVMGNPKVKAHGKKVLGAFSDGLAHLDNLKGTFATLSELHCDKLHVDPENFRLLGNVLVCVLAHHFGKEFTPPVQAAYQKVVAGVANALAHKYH

IsdB (from UniProt A7X146)
Kd: 55 nM
